# Source: publication doi:10.1101/2022.11.01.514793
# Columns and labels:
# [1] = molecular target: AdgH (Variovorax); experiment: cryo-EM structure
# [2] = molecular target: AdgI (Variovorax); experiment: cryo-EM structure
# [3] = molecular target: AdgH (Variovorax); experiment: SEC
Substance,stoichiometry N [1],stoichiometry N [2],stoichiometry N (AdgI:AdgH molar ratio) [3]
AdgH (enzyme),3,,
AdgI (enzyme),,3,1
